Measurements from patent US7393670B2, “Tyrosyl-tRNA synthetase variants” (Japan Science and Technology Agency, priority 2001, dated 2008).
Changes are numbered by the printed parent chain.

B1: 37A: E. coli TyrRS variant: position 37 Alanine, position 195 Glutamine (protein, UniProt P0AGJ9 2-424, looked up, variant Y37A)
Tyrosine--tRNA ligase: ASSNLIKQLQERGLVAQVTDEEALAERLAQGPIALACGFDPTADSLHLGHLVPLLCLKRFQQAGHKPVALVGGATGLIGDPSFKAAERKLNTEETVQEWVDKIRKQVAPFLDFDCGENSAIAANNYDWFGNMNVLTFLRDIGKHFSVNQMINKEAVKQRLNREDQGISFTEFSYNLLQGYDFACLNKQYGVVLQIGGSDQWGNITSGIDLTRRLHQNQVFGLTVPLITKADGTKFGKTEGGAVWLDPKKTSPYKFYQFWINTADADVYRFLKFFTFMSIEEINALEEEDKNSGKAPRAQYVLAEQVTRLVHGEEGLQAAKRITECLFSGSLSALSEADFEQLAQDGVPMVEMEKGADLMQALVDSELQPSRGQARKTIASNAITINGEKQSDPEYFFKEEDRLFGRFTLLRRGKKNYCLICWK
B2: AA: E. coli TyrRS double variant: position 37 Alanine, position 195 Alanine (protein, UniProt P0AGJ9 2-424, looked up, variant Y37A Q195A)
Tyrosine--tRNA ligase: B1 Tyrosine--tRNA ligase with Q194A
B3: AN: E. coli TyrRS double variant: position 37 Alanine, position 195 Asparagine (protein, UniProt P0AGJ9 2-424, looked up, variant Y37A Q195N)
Tyrosine--tRNA ligase: B1 Tyrosine--tRNA ligase with Q194N
B4: IN: E. coli TyrRS double variant: position 37 Isoleucine, position 195 Asparagine (protein, UniProt P0AGJ9 2-424, looked up, variant Y37I Q195N)
Tyrosine--tRNA ligase: B1 Tyrosine--tRNA ligase with A36I, Q194N
B5: LN: E. coli TyrRS double variant: position 37 Leucine, position 195 Asparagine (protein, UniProt P0AGJ9 2-424, looked up, variant Y37L Q195N)
Tyrosine--tRNA ligase: B1 Tyrosine--tRNA ligase with A36L, Q194N
B6: LA: E. coli TyrRS double variant: position 37 Leucine, position 195 Alanine (protein, UniProt P0AGJ9 2-424, looked up, variant Y37L Q195A)
Tyrosine--tRNA ligase: B1 Tyrosine--tRNA ligase with A36L, Q194A
B7: Wild-type: wild-type tyrosyl-tRNA synthetase of E. coli (SEQ ID NO: 1): position 37 Tyrosine, position 195 Glutamine (protein, listed as Escherichia coli)
chain: MASSNLIKQLQERGLVAQVTDEEALAERLAQGPIALYCGFDPTADSLHLGHLVPLLCLKRFQQAGHKPVALVGGATGLIGDPSFKAAERKLNTEETVQEWVDKIRKQVAPFLDFDCGENSAIAANNYDWFGNMNVLTFLRDIGKHFSVNQMINKEAVKQRLNREDQGISFTEFSYNLLQGYDFACLNKQYGVVLQIGGSDQWGNITSGIDLTRRLHQNQVFGLTVPLITKADGTKFGKTEGGAVWLDPKKTSPYKFYQFWINTADADVYRFLKFFTFMSIEEINALEEEDKNSGKAPRAQYVLAEQVTRLVHGEEGLQAAKRITECLFSGSLSALSEADFEQLAQDGVPMVEMEKGADLMQALVDSELQPSRGQARKTIASNAITINGEKQSDPEYFFKEEDRLFGRFTLLRRGKKNYCLICWK

Experiments:
Type in all cases: biochemical
[1] = Aminoacylation reaction, simplified Lloyd's method, inorganic phosphate detected with Biomol green; parameters: key: ***: the aminoacylation reaction was detected by a microplate reader in the reaction at enzyme concentrations of 50 nM; **: 500 nM; *: 5 μM; the activity is high in the order of *** > ** > * > —; conditions: tyrosine 200 μM, 37° C. for 4 min
Protocol: (§1) In the first method, Lloyd's method (Nucleic Acids Research, 23:2886-2892, 1995) where inorganic phosphate produced by pyrophosphatase-drived hydrolysis of pyrophosphate which was one of the reaction products of the aminoacylation reactions was quantified was simplified, and the inorganic phosphate was detected using Biomol green (Funakoshi) to carry out the measurement of the aminoacylation reaction.
(§2) Amino acid concentrations were 200 μM and 1 mM for tyrosine and 3-iodotyrosine, respectively.
(§3) The method where the aminoacylation reaction is measured by quantifying inorganic phosphate produced by pyrophosphatase-drived hydrolysis of pyrophosphate which is one of reaction products of the aminoacylation has been described by Lloyd et al. (Nucleic Acids Research, 23:2886-2892, 1995). In one method of the invention, this method was simplified and the aminoacylation reaction was measured by the detection of inorganic phosphate using Biomol green (Funakoshi). […] To stop the reaction, 0.1 ml of Bio mol green was added. Absorbance of its supernatant was measured at 630 nm.

[2] = as above; parameters: key: ***: the aminoacylation reaction was detected by a microplate reader in the reaction at enzyme concentrations of 50 nM; **: 500 nM; *: 5 μM; the activity is high in the order of *** > ** > * > —; conditions: 3-iodotyrosine 1 mM, 37° C. for 4 min
Protocol: as §1, §2
The method where the aminoacylation reaction is measured by quantifying inorganic phosphate produced by pyrophosphatase-drived hydrolysis of pyrophosphate which is one of reaction products of the aminoacylation has been described by Lloyd et al. (Nucleic Acids Research, 23:2886-2892, 1995). In one method of the invention, this method was simplified and the aminoacylation reaction was measured by the detection of inorganic phosphate using Biomol green (Funakoshi). Each enzyme obtained was incubated with 0.05 ml of the buffer B containing 1 mM ATP (Seikagaku Corporation), 30 μM purified crude tyrosyl-tRNA, and 100 μM tyrosine or 0.5 mM 3-iodotyrosine at 37° C. for one hour. To stop the reaction, 0.1 ml of Bio mol green was added. Absorbance of its supernatant was measured at 630 nm.

[3] = Aminoacylation activity by Lloyd's method (release of pyrophosphates); conditions: at 37° C.; for Initial velocity of release of pyrophosphates, 3-iodotyrosine: 200 μM 3-iodotyrosine; for Initial velocity of release of pyrophosphates, Tyrosine: 200 μM tyrosine
Protocol: In the second method, Lloyd's method (Nucleic Acids Research, 23:2886-2892, 1995) was carried out without alteration.
In the second method, the activity was assayed by Lloyd's method (Nucleic Acids Research, 23:2886-2892, 1995). Each enzyme obtained was incubated with 0.4 ml of the buffer B containing 1 mM ATP (Seikagaku Corporation), 100 μM purified crude tyrosyl-tRNA, 200 μM tyrosine or 3-iodotyrosine at 37° C. for 6 min. The aminoacylation activity was represented as concentrations of released phosphate per min.

[4] = Aminoacylation reaction, simplified Lloyd's method, inorganic phosphate detected with Biomol green; parameters: key: ***: the reaction could be detected strongly at 25 nM; **: strongly at 250 nM; *: weakly at 250 nM; the activity is high in the order of *** > ** > * > —; conditions: Table 3; tyrosine 200 μM; 37° C. for 4 min
Protocol: as §1, §2, §3

Molecule	Aminoacylation activity, Tyrosine ([1]; Table 2)	Aminoacylation activity, 3-iodotyrosine ([2]; Table 2)	Initial velocity of release of pyrophosphates, 3-iodotyrosine [3] [nM PPi/min/nM enzyme]	Initial velocity of release of pyrophosphates, Tyrosine [3] [nM PPi/min/nM enzyme]	Aminoacylation activity, Tyrosine ([1]; Table 3)	Aminoacylation activity, 3-iodotyrosine ([2]; Table 3)	Aminoacylation activity, Tyrosine [4]
B1	***	***	12	51			
B2					—	—	
B3					—	—	
B4					—	—	
B5						—	*
B6						—	*
B7	***	—	<0.05	400		—	***
